B1: LINE1-full (parent)
chain: UACGUAGGUGGUUUUCCCCUGAUAGUGCUAAGGGGGCCUGGAAGUUUGGACUGGGCAGAGCUCAACACAGCGUGGCAAAGUGGCUGUGGCUAGACUGCCUCUCUGGAUUCCUCGUCACUCAGCAGGGCAUCUCUGAGAGAAAUGCC

Variants of: B1
Assay: self-cleavage, relative activity (ratio to wild type); higher = more cleavage; in vitro, sequencing; the parent is a self-cleaving ribozyme

| Variant | self-cleavage |
| --- | --- |
| UACGUAGGUGGUUUUCCCCUGAUAGUGCUAAGGGGGCCUGGAAGUUUGGACUGGGCAGAGCUCAACACAGCGUGGCAAAGUGGCUGUGGCUAGACUGCCUCACUGGAUUCCUCGUCACUCAGCAGGGCACCUCUGAGAGAAAUGCC [U102A U130C] | 1.89 |
| UACGUAGGUGGUUUUUCCCUGAUAGUGCUAAGGGGGCCUGGAAGUUUGGACUGGGCAGAGCUCAACACAGCGUGGCAAUGUGGCUGUGGCUAGACUGCCUCUCUGGAUUCCUCGUCACUCAGCAGGGCAUCUCUGAGAGAAAUGCC [C16U A79U] | 1.54 |
| UACGUAGGUGGUUUUCCCCUGAUAGUGCUAAGGGGGCCCGGAAGUUUGGACUGGGCAGAGCUCAACACUGCGUGGCAAAGUGGCUGUGGCUAGACUGCCUCUCUGGAUUCCUCGUCACUCAGCAGGGCAUCUCUGAGAGAAAUGCC [U39C A69U] | 0.06 |
| UACGUACGUGGGUUUCCCCUGAUAGUGCUAAGGGGGCCUGGAAGUUUGGACUGGGCAGAGCUCAACACAGCGUGGCAAAGUGGCUGUGGCUAGACUGCCUCUCUGGAUUCCUCGUCACUCAGCAGGGCAUCUCUGAGAGAAAUGCC [G7C U12G] | 1.19 |
| UACGUAGGUGGUUUUCUCCUGAUAGUGCUAAGGGGGCCUGGAAGUUUGGACUGGGCAGAGCUCAACACAGCGUGGCAAAGUGGCUGUGGCUAGACUGCCUCUCUGGAUUCCACGUCACUCAGCAGGGCAUCUCUGAGAGAAAUGCC [C17U U112A] | 0.9 |
| UACGUAGGUGGUUUUCCCCUGAUAGUGCUAUGGGGGCCUGGAAGUUUGGACUGGGCAGAGCUCAACACAGCGUGGCAAAGUGGCUGUUGCUAGACUGCCUCUCUGGAUUCCUCGUCACUCAGCAGGGCAUCUCUGAGAGAAAUGCC [A31U G88U] | 0.15 |
| UACGUAGGUGGUUUUCCCCUGAUAGUGCUAAGGGGGCCUGGAAGUUUGGACAGGGCAGAGCUCAACACAGCGUGGCAAAGUGGCUGUGGCUAGACUGCCUCUCUGGAUUCCUCGUCACACAGCAGGGCAUCUCUGAGAGAAAUGCC [U52A U119A] | 1.47 |
| UACGUAGGUGGUUUUCCCCUGAUAGUGCUAAGGGGGCCUGGAAGCUUGGACUGGGCAGAGCUCAACACAGCGUGGCAAAGUGGCUGUGGCUAGACUGCCUCUCUGGAUUCCUCGUCACUCAGCAGGGCAUCCCUGAGAGAAAUGCC [U45C U132C] | 1.51 |
| UACGUAGGUGGUUUUCCCCUGAUAGUGCUAAGGGGGCCUGGUAGUUUGGACUGGUCAGAGCUCAACACAGCGUGGCAAAGUGGCUGUGGCUAGACUGCCUCUCUGGAUUCCUCGUCACUCAGCAGGGCAUCUCUGAGAGAAAUGCC [A42U G55U] | 0.1 |
| UACGUAGGUGGUUUUCCCCUGAUAGUGCUAAGGGGGCCUGGAAGUUUGGACUGGGCAGAGCUCAACACAGCGUGGCAAGGUGGCUGUGGCUAGUCUGCCUCUCUGGAUUCCUCGUCACUCAGCAGGGCAUCUCUGAGAGAAAUGCC [A79G A94U] | 0.26 |
| UACGUAGGUGGUUUUCCCCUGAUAGUGCUAAGGGGGCCUGGAAGUUUGGACUGGGCAGAGCUCAACACAGCGUGGCAAAGUGGCUGUGGCUAGUCUGCCUCUCUGGAUUCCUCGUCACUCAGCAGGGCAUCCCUGAGAGAAAUGCC [A94U U132C] | 0.52 |
| UACGUAGGUGGUUUUCCCCUGAUAGUGCUAAGGGGGCCUGGAAGAUUGGACUGGGCAGAGCUCAACACAGCGUGGCUAAGUGGCUGUGGCUAGACUGCCUCUCUGGAUUCCUCGUCACUCAGCAGGGCAUCUCUGAGAGAAAUGCC [U45A A77U] | 1.56 |
| UACGUAGGUGGUUUUCCCCUGAUAGUGCUAAGGGGGCCUGGAAGUUUGGACUGGGCAGAGCUCAACACAGCGUGGCAAAGUGGCUGGGGCUAGACUGCCUCUCUGGAUUCCUCGUCCCUCAGCAGGGCAUCUCUGAGAGAAAUGCC [U87G A117C] | 0.31 |
| UACGUAGGUGGUUUUCCCCUGAUAGUGCUAAGGGGGCCUGGAAGUUUGGACUGGGCAGAGCUCAACACAGCGUGGCAAAGUGGCUGUGGCUAGACUGCCUCACUGGAUUCCUCGUCACCCAGCAGGGCAUCUCUGAGAGAAAUGCC [U102A U119C] | 2.01 |
| UACGUAGGUGGUUUUCCCCUGAUAGUGCUUAGGGGGCCUGGAAGUUUGGACUGGGCAGAGCUCAGCACAGCGUGGCAAAGUGGCUGUGGCUAGACUGCCUCUCUGGAUUCCUCGUCACUCAGCAGGGCAUCUCUGAGAGAAAUGCC [A30U A65G] | 0.06 |
| UACGUAGGUGGUUUUCCCCUGAUAGUGCUAAGGGGGCCUGGAAGUUUGGACUGGGCAGAGCUCAACACAGCGUGGCAAAGUGGCUGUGGCUAGACUGCCUCUCUGGAUUCCACGUCACUCCGCAGGGCAUCUCUGAGAGAAAUGCC [U112A A121C] | 1.92 |
| UACGUAGGUGGUUUUCCCCUGAUAGUGCUAAGGGGGCACGGAAGUUUGGACUGGGCAGAGCUCAACACAGCGUGGCAAAGUGGCUGUGGCUAGACUGCCUCUCUGGAUUCCUCGUCACUCAGCAGGGCAUCUCUGAGAGAAAUGCC [C38A U39C] | 1.77 |
| UACGUAGGUGGUUUUCCCCUGAUAGUGCUAAGGGGGCCUGGAAGUUUGGACUGGGCAGAGCUCAACACAGCGUGGCAAAGUGGCUGUGGCUAGACUGCCUCUCUGGAUUCCUCGUCAUUCAGCAGGGCAUCUCUGAGAGAAAUGCC [C118U] | 1.32 |
| UACGUUGGUGGUUUUCCUCUGAUAGUGCUAAGGGGGCCUGGAAGUUUGGACUGGGCAGAGCUCAACACAGCGUGGCAAAGUGGCUGUGGCUAGACUGCCUCUCUGGAUUCCUCGUCACUCAGCAGGGCAUCUCUGAGAGAAAUGCC [A6U C18U] | 0.84 |
| UACGUAGGUGGUUUUCCCCUGAUAGUGCUAAGGGGGCCUGGAAGUUUGGACUGAGCAGAGCUCAACACAGCGUGGCAAAGUGGCUGUGGCUAGACUGCCUCUCUUGAUUCCUCGUCACUCAGCAGGGCAUCUCUGAGAGAAAUGCC [G54A G105U] | 0.7 |

| Variant | self-cleavage |
| --- | --- |
| UACGUAGGUGGUUUUCCCCUGAUAGUGCUAAGGGGGCCUGGAAGUUUGGACUGGGCAGAGCUCAACACAGCGUGGCAAAGUGGCUGUGGCUAGACUGCCUCUCUGGAUUCCUCGUCACUCUGCAGGGCAUCUCUGAGAGAAAUGCC [A121U] | 1.34 |
| UACGUAGGUGGUUUUCCCCUGAUAGUGCUAAGGGGGCCUGGAAGUUUGGACUGAGCAGAGCUCAACACAGCGUGGCAAAGUGGCUGUGGCUAGACUGCCUCUCUGGAUUCCUCGUCACUCAGCAGGGCAUCUCUGUGAGAAAUGCC [G54A A136U] | 0.67 |
| UACGUAGGUGGUUUUCCCCUGAUAGUGCUAAGGGGGCCUGGAAGUUUGGACUGGGCAGAGCUCAUCACAGCGUGGCAAAGUGGCUGUGGCUAGACUGCCUCUCUGGAUUCCUCGUCACUCAGCAGGGCAUCUCUGAGAAAAAUGCC [A65U G139A] | 0.15 |
| UAUGUAGGUGGUUUUCCCCUGAUAGUGCUAAGGGGGCCUGGAAGAUUGGACUGGGCAGAGCUCAACACAGCGUGGCAAAGUGGCUGUGGCUAGACUGCCUCUCUGGAUUCCUCGUCACUCAGCAGGGCAUCUCUGAGAGAAAUGCC [C3U U45A] | 0.93 |
| UACGUAAGUGGUUUUCCCCUGAUAGUGCUAAGGGGGCCUGGAAGUUUGGACUGGGCAGAGCUCAACACAGCGUGGCAAAGUGGCUGUGGCCAGACUGCCUCUCUGGAUUCCUCGUCACUCAGCAGGGCAUCUCUGAGAGAAAUGCC [G7A U91C] | 0.34 |
| UACGUAGGUGGUCUUCCCCUGAUAGUGCUAAGGGGGCCUGGAAGUUUGGACUGGGCAGAGCUCAACACAGCGUGGCAAAGUGGCUGUGGCUAGACUGCCUCUCUGGAUUCCUCGUCACUCAUCAGGGCAUCUCUGAGAGAAAUGCC [U13C G122U] | 1.02 |
| UACGUAGGUGGUUUUCCCCUGAUAGUGCUAAGGGGGCCUGGAAGUUUGGACUGGGCAGAGCUCAACACAGCGUGGCAAAGUGGCUGUGGCUAGACUGCCUCUCUGAAUUCCUCGUCACUCAGCAGGGCAUCACUGAGAGAAAUGCC [G106A U132A] | 0.61 |
| UACGUAGGUGGUUUUCCCCUGAUAGUGCUAAGGGGGCCCGGAAGUUUGGACUGGGCAGAGCUCAACACAGCGUGGCAAAGAGGCUGUGGCUAGACUGCCUCUCUGGAUUCCUCGUCACUCAGCAGGGCAUCUCUGAGAGAAAUGCC [U39C U81A] | 1.44 |
| UACGUAGGUGGUUUUCCCCUGAUAGUGCUAAGGGGGCCUGGAAGUUUGGACUGGGCAGUGCUCAACACAGCGUGGCAAAGUGGCUGUGGCUAGACUGCCUCUCUGGAUUCCUCGCCACUCAGCAGGGCAUCUCUGAGAGAAAUGCC [A59U U115C] | 1.34 |
| UACGUAGGUGGUUUUCCCCUGAUAGUGCUAAGGGGGCCUGGAAGUUUGGACUGGGCAGAGCUCAACACAGCGUGACAAAGUGGCUGUGGCUAGACUGCCUCUCUGGGUUCCUCGUCACUCAGCAGGGCAUCUCUGAGAGAAAUGCC [G75A A107G] | 1.66 |
| UACGUAGGUGGUUUUCCCCUGAUAGUGCUAAGGGGGCCUGGAAGUUUGGACUGGGCAGAGCUCAACACAGCGUGGCAAAGUGGCUGUGGCUAGACUGCCUCUCUGGAUUCCCCGUCACUCAGCAAGGCAUCUCUGAGAGAAAUGCC [U112C G125A] | 1.6 |
| UACGUAGGUGGUUUUCCCCUGAUAGCGCUAAGGGGGCCUGGAAGUUUGGACUGGGCAGUGCUCAACACAGCGUGGCAAAGUGGCUGUGGCUAGACUGCCUCUCUGGAUUCCUCGUCACUCAGCAGGGCAUCUCUGAGAGAAAUGCC [U26C A59U] | 0.84 |
| UACGUAGGUGGUUUUCCCCUGAUAGUGCUAAGGGGGCCUGGAAGCUUGGACUGGGCAGAGCUCAACACUGCGUGGCAAAGUGGCUGUGGCUAGACUGCCUCUCUGGAUUCCUCGUCACUCAGCAGGGCAUCUCUGAGAGAAAUGCC [U45C A69U] | 0.03 |
| UACGUAGGUGGUUUUCCCCUGAUAGUGCUAAGGGGGCCUGGAAGUUUGGACUGGGCAGAGCUCAACACAGCGUGGCAAAGUGGCUGUGGCUAGACCGCCUCUCUGGAUUCCUCGCCACUCAGCAGGGCAUCUCUGAGAGAAAUGCC [U96C U115C] | 0.32 |
| UACAUAGGUGGUUUUCCCCUGAUAGUGCUAAGGGGGCCUGGAAGUUUGGACUGGGCAGAGCUCAACACAGCGUGGCAAAGUGGCUGUGGCUAGACUGCCCCUCUGGAUUCCUCGUCACUCAGCAGGGCAUCUCUGAGAGAAAUGCC [G4A U100C] | 1.21 |
| UACGUAGGUGGUUUUCCCCUGACAGUGCCAAGGGGGCCUGGAAGUUUGGACUGGGCAGAGCUCAACACAGCGUGGCAAAGUGGCUGUGGCUAGACUGCCUCUCUGGAUUCCUCGUCACUCAGCAGGGCAUCUCUGAGAGAAAUGCC [U23C U29C] | 1.06 |
| UACGUAGGAGGUUUUCCCCUGAUAGUGCUAAGGGGGCCUGGAAGUUUGGACUAGGCAGAGCUCAACACAGCGUGGCAAAGUGGCUGUGGCUAGACUGCCUCUCUGGAUUCCUCGUCACUCAGCAGGGCAUCUCUGAGAGAAAUGCC [U9A G53A] | 1.53 |
| UACGUAGGUGGUUUUCCCCUGAUAGUGCUAAGGGGGCCUGGAAGUUAGGACUGGGCAGAGCUCAACUCAGCGUGGCAAAGUGGCUGUGGCUAGACUGCCUCUCUGGAUUCCUCGUCACUCAGCAGGGCAUCUCUGAGAGAAAUGCC [U47A A67U] | 0.12 |
| UACGUAGGUGGUUUUCCCCUGAUAGUGCUAAGGGGGCCUGGAAGUUUGGACUGGGCAGAACUCAACACAGCGUGGCAAAGUGGCUGUGGCUAGACUGCCUCUCUGGAUUCCUCGUCACUCUGCAGGGCAUCUCUGAGAGAAAUGCC [G60A A121U] | 0.1 |
